Experimental findings from patent publication US20240124607A1 (Merck Sharp & Dohme, published 2024) are described below.

Experiment [1] has as its target T1, CEACAM5 N-A1-B1-His (human, UniProt P06731 35-322, limits assumed).
T1 sequence: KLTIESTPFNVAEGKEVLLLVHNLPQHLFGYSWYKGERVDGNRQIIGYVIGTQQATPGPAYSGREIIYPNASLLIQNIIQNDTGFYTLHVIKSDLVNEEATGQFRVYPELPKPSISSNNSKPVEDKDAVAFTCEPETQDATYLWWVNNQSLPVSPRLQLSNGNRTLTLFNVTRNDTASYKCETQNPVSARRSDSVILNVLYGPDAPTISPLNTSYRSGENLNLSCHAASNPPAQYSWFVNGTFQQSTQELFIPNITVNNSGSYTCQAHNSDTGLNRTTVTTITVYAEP
Kind of experiment: SPR, Fab capt, 25C. Here is the method: (§1) If the protein domain was an Fc fusion, AB0411, AB0466, AB0264, or AB0621 were captured using an anti-human Fab antibody (Cytiva, #28958325) immobilized onto a CM5 chip. The various hCEACAM5 protein domains (N-term, A1-B1, A2, B2, A3, or B3) were titrated over the captured TriNKETs at 50 μL/min for 180 sec of association and 300 sec of dissociation. The assay was run at 25° C. in HBS-EP+ running buffer, pH 7.4. The surface of the CM5 chip was regenerated using […] glycine pH 2.1.
(In SPR one partner is held on a chip, and binding of the other changes the refractive index at the surface.)

Experiment [2] deals with T2, human CD16A (FcγRIIIA) V158 (human, UniProt P08637 17-208, limits assumed, biotinylated in the assay of Table 21).
T2 construct: also called CD16A (V158/V176)
Kind of experiment: SPR, biotin-CD16A on SA chip, 25C, pH 6.0. The procedure: (§2) Binding to human and cynomolgus CD16A was assessed using biotinylated CD16A captured on a streptavidin (SA) sensor chip (Cytiva, #BR100531). AB0411, AB0466, or AB0621 was titrated from 1500 nM at 25° C. at 30 μL/min for 150 sec association followed by 300 sec dissociation. The surface of the chip was regenerated with 2 mM sodium hydroxide for 5 sec at 30 μL/min. Running buffer was HBS-EP+. […] The V158 isoform bound ˜2- to 3-fold tighter than the F158 isoform as expected.

The target of experiment [3] is T3, Cyno FcγRIIIA (cynomolgus monkey, UniProt Q8SPW2 17-208, limits assumed, biotinylated).
T3 construct: also called cynomolgus CD16A
Kind of experiment: SPR, biotin-CD16A on SA chip, 25C, pH 6.0. Here is the method:
as §2

Experiment [4] has as its target T4, hCEACAM5 A3-B3 domain (human, UniProt P06731 501-685, limits assumed).
T4 sequence: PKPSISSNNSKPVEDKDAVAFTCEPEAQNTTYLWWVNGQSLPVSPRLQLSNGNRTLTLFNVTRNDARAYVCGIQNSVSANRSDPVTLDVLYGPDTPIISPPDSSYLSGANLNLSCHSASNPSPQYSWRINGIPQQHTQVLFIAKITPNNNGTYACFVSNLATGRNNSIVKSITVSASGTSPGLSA
Description: SPR with hCEACAM5 domains. The procedure: as §1
The various hCEACAM5 protein domains were titrated over the captured antibody at 50 μL/min for 180 sec of association and 300 sec of dissociation. The assay was run at 37° C. in HBS-EP+ running buffer, pH 7.4. The surface of the CM5 chip was regenerated using 3M MgCl₂.

For experiment [5], the target named is T5, human CEACAM8 on Ba/F3 cells (human, UniProt P31997 35-320).
T5 construct: whole, on cells
T5 sequence (looked up): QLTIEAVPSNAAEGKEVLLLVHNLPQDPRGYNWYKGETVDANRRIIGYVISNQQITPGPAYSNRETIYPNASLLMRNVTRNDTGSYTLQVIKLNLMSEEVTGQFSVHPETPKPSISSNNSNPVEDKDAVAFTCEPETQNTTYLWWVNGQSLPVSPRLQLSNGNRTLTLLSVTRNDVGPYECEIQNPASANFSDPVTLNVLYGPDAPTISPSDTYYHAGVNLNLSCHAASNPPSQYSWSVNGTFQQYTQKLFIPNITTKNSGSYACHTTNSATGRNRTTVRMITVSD
Description: flow cytometry on Ba/F3 cells expressing human CEACAM8, fold over background (FOB), 5-fold dilutions from 1600 nM. Here is the method: To examine the binding specificity of the TriNKETs to CEACAM5 compared to other CEACAM family members, Ba/F3 cells were engineered to express one of human CEACAM1, CEACAM6, CEACAM8, or cynomolgus CEACAM5. CEACAM5 TriNKETs were evaluated by flow cytometry starting at 1600 nM followed by 7 5-fold dilutions.
In general terms: A flow cytometer gives signals particle by particle.

T3 sequence (Q8SPW2 17-208 limits assumed): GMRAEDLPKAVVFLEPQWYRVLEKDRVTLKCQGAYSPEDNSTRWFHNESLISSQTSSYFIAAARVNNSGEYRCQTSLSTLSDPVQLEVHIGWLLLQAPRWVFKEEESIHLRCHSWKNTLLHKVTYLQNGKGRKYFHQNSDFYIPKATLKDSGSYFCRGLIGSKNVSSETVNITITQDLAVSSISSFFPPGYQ
T2 sequence (P08637 17-208 F176V limits assumed): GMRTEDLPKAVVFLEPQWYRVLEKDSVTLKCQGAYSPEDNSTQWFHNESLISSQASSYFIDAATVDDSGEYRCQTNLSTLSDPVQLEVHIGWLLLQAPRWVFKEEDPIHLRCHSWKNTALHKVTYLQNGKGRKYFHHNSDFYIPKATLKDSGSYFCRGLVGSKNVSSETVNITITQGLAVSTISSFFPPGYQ

B1: AB0466 F3' CEACAM5 TriNKET (bispecific antibody, human IgG1, kappa)
chain: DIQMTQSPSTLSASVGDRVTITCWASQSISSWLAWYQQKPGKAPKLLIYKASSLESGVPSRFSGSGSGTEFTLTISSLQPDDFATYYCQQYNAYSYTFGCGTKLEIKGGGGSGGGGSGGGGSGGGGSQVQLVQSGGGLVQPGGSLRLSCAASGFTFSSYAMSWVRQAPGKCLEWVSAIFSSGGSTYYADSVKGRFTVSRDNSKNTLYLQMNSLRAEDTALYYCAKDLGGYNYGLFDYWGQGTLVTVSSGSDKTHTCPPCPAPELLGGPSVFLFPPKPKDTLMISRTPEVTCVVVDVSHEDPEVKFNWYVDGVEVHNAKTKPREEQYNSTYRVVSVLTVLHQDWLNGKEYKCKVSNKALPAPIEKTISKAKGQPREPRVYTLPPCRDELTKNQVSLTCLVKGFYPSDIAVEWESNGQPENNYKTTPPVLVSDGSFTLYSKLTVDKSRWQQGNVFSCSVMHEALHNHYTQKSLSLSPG
heavy: EVQLVESGGGLVKPGGSLRLSCAASGFTFSSYSMNWVRQAPGKGLEWVSSISSSSSYIYYADSVKGRFTISRDNAKNSLYLQMNSLRAEDTAVYYCARGAPIGAAAGWFDPWGQGTLVTVSSASTKGPSVFPLAPSSKSTSGGTAALGCLVKDYFPEPVTVSWNSGALTSGVHTFPAVLQSSGLYSLSSVVTVPSSSLGTQTYICNVNHKPSNTKVDKKVEPKSCDKTHTCPPCPAPELLGGPSVFLFPPKPKDTLMISRTPEVTCVVVDVSHEDPEVKFNWYVDGVEVHNAKTKPREEQYNSTYRVVSVLTVLHQDWLNGKEYKCKVSNKALPAPIEKTISKAKGQPREPQVCTLPPSRDELTENQVSLTCLVKGFYPSDIAVEWESNGQPENNYKTTPPVLDSDGSFFLYSWLTVDKSRWQQGNVFSCSVMHEALHNHYTQKSLSLSPG
light: DIQMTQSPSSVSASVGDRVTITCRASQGISSWLAWYQQKPGKAPKLLIYAASSLQSGVPSRFSGSGSGTDFTLTISSLQPEDFATYYCQQGVSFPRTFGGGTKVEIKRTVAAPSVFIFPPSDEQLKSGTASVVCLLNNFYPREAKVQWKVDNALQSGNSQESVTEQDSKDSTYSLSSTLTLSKADYEKHKVYACEVTHQGLSSPVTKSFNRGEC
What is called Kd is a measure of binding affinity in units of concentration. What is called kon is the second-order rate constant of association. A word on the koff: it is the rate constant with which the complex falls apart. Low values mean a long-lived complex, high ones a short-lived complex. As to B1, the values for the Kd in experiment [1], in experiment [2] and in experiment [3] were 2.1 nM, 47 nM and 19 nM, respectively. Besides, the kon amounted to 280000 M⁻¹ s⁻¹ in experiment [1], 820000 M⁻¹ s⁻¹ in experiment [2] and 2.4e+06 M⁻¹ s⁻¹ in experiment [3]. Also, the koff turned out to be 0.038 s⁻¹ in experiment [2] and 0.047 s⁻¹ in experiment [3]. The binding result in experiment [4] is on record as “no binding”; in experiment [5], “no binding (tested: 1600 nM)”.

B2: AB0411 F3' CEACAM5 TriNKET (bispecific antibody, human IgG1, kappa)
chain: DIQLTQSPATLSVSPGERATLSCRASQSVSSSYLAWYQQKPGQAPRLLIYGASSRATGIPDRFSGSGSGTDFTLTISRLEPEDFAVYYCQQYNNWPLTFGCGTKVEIKGGGGSGGGGSGGGGSGGGGSQVQLVQSGGGLVQPGGSLRLSCAASGFTFTSYAMSWVRQAPGKCLEWVSAISGTGDSTFYADSVKGRFTFSRDNSKNTLYLQMNSLRAEDTAVYYCAKDLGWLQYGLFDYWGQGTLVTVSSGSDKTHTCPPCPAPELLGGPSVFLFPPKPKDTLMISRTPEVTCVVVDVSHEDPEVKFNWYVDGVEVHNAKTKPREEQYNSTYRVVSVLTVLHQDWLNGKEYKCKVSNKALPAPIEKTISKAKGQPREPRVYTLPPCRDELTKNQVSLTCLVKGFYPSDIAVEWESNGQPENNYKTTPPVLVSDGSFTLYSKLTVDKSRWQQGNVFSCSVMHEALHNHYTQKSLSLSPG
heavy: EVQLVESGGGLVKPGGSLRLSCAASGFTFSSYSMNWVRQAPGKGLEWVSSISSSSSYIYYADSVKGRFTISRDNAKNSLYLQMNSLRAEDTAVYYCARGAPIGAAAGWFDPWGQGTLVTVSSASTKGPSVFPLAPSSKSTSGGTAALGCLVKDYFPEPVTVSWNSGALTSGVHTFPAVLQSSGLYSLSSVVTVPSSSLGTQTYICNVNHKPSNTKVDKKVEPKSCDKTHTCPPCPAPELLGGPSVFLFPPKPKDTLMISRTPEVTCVVVDVSHEDPEVKFNWYVDGVEVHNAKTKPREEQYNSTYRVVSVLTVLHQDWLNGKEYKCKVSNKALPAPIEKTISKAKGQPREPQVCTLPPSRDELTENQVSLTCLVKGFYPSDIAVEWESNGQPENNYKTTPPVLDSDGSFFLYSWLTVDKSRWQQGNVFSCSVMHEALHNHYTQKSLSLSPG
light: DIQMTQSPSSVSASVGDRVTITCRASQGISSWLAWYQQKPGKAPKLLIYAASSLQSGVPSRFSGSGSGTDFTLTISSLQPEDFATYYCQQGVSFPRTFGGGTKVEIKRTVAAPSVFIFPPSDEQLKSGTASVVCLLNNFYPREAKVQWKVDNALQSGNSQESVTEQDSKDSTYSLSSTLTLSKADYEKHKVYACEVTHQGLSSPVTKSFNRGEC
Take B2: in experiment [1], the Kd came out at 0.95 nM and the kon came to 300000 M⁻¹ s⁻¹. In experiment [2], binding was put at a Kd of 36 nM, the off-rate constant (koff) was determined as 0.029 s⁻¹ and the on-rate (kon) was 830000 M⁻¹ s⁻¹. The same molecule showed a Kd in experiment [3] of 16 nM. The binding result in experiment [4] is reported as “no binding”.

B3: AB0264 F3' CEACAM5 TriNKET (bispecific antibody, human IgG1, kappa)
chain: DIVMTQSPDSLAVSLGERATINCKSSHSLLYGNFQNNYLAWYQQKPGQPPKLLIYWASTRESGVPDRFSGSGSGTDFTLTISSLQAEDVAVYYCQQYYSYPYTFGCGTKLEIKGGGGSGGGGSGGGGSGGGGSQVQLVQSGAEVKKPGASVKVSCKASGYTFTAYTIHWVRQAPGQCLEWMGYINPSSGYTEYNQKFKDRTTLTADTSIPTAYMELSRLRSDDTAVYYCTREGGLLWFDYWGQGTLVTVSSGSDKTHTCPPCPAPELLGGPSVFLFPPKPKDTLMISRTPEVTCVVVDVSHEDPEVKFNWYVDGVEVHNAKTKPREEQYNSTYRVVSVLTVLHQDWLNGKEYKCKVSNKALPAPIEKTISKAKGQPREPRVYTLPPCRDELTKNQVSLTCLVKGFYPSDIAVEWESNGQPENNYKTTPPVLVSDGSFTLYSKLTVDKSRWQQGNVFSCSVMHEALHNHYTQKSLSLSPG
heavy: EVQLVESGGGLVKPGGSLRLSCAASGFTFSSYSMNWVRQAPGKGLEWVSSISSSSSYIYYADSVKGRFTISRDNAKNSLYLQMNSLRAEDTAVYYCARGAPIGAAAGWFDPWGQGTLVTVSSASTKGPSVFPLAPSSKSTSGGTAALGCLVKDYFPEPVTVSWNSGALTSGVHTFPAVLQSSGLYSLSSVVTVPSSSLGTQTYICNVNHKPSNTKVDKKVEPKSCDKTHTCPPCPAPELLGGPSVFLFPPKPKDTLMISRTPEVTCVVVDVSHEDPEVKFNWYVDGVEVHNAKTKPREEQYNSTYRVVSVLTVLHQDWLNGKEYKCKVSNKALPAPIEKTISKAKGQPREPQVCTLPPSRDELTENQVSLTCLVKGFYPSDIAVEWESNGQPENNYKTTPPVLDSDGSFFLYSWLTVDKSRWQQGNVFSCSVMHEALHNHYTQKSLSLSPG
light: DIQMTQSPSSVSASVGDRVTITCRASQGISSWLAWYQQKPGKAPKLLIYAASSLQSGVPSRFSGSGSGTDFTLTISSLQPEDFATYYCQQGVSFPRTFGGGTKVEIKRTVAAPSVFIFPPSDEQLKSGTASVVCLLNNFYPREAKVQWKVDNALQSGNSQESVTEQDSKDSTYSLSSTLTLSKADYEKHKVYACEVTHQGLSSPVTKSFNRGEC
In experiment [1], B3 yielded a Kd of 1.1 nM and a kon of 410000 M⁻¹ s⁻¹. Further, the binding result in experiment [4] is “no binding”. Further, in experiment [5], the binding result is reported as “no binding (tested: 1600 nM)”.
